Data published in publication PMC10409785 (Nature Communications, 2023).

Molecular target: T1, human Uba7 (human, UniProt P41226 1-1012, Cys599 crosslinked to UBE2L6 Cys86 (in the cryo-EM complexes only))
T1 construct: also called hUba7; E1; source: E. coli BL21 codon plus or Hi5 insect cells (baculovirus), purified (Ni-NTA, Superdex 200, Enrich Q); not shown: His6 (insect cell construct), N-terminal, cleaved
T1 sequence: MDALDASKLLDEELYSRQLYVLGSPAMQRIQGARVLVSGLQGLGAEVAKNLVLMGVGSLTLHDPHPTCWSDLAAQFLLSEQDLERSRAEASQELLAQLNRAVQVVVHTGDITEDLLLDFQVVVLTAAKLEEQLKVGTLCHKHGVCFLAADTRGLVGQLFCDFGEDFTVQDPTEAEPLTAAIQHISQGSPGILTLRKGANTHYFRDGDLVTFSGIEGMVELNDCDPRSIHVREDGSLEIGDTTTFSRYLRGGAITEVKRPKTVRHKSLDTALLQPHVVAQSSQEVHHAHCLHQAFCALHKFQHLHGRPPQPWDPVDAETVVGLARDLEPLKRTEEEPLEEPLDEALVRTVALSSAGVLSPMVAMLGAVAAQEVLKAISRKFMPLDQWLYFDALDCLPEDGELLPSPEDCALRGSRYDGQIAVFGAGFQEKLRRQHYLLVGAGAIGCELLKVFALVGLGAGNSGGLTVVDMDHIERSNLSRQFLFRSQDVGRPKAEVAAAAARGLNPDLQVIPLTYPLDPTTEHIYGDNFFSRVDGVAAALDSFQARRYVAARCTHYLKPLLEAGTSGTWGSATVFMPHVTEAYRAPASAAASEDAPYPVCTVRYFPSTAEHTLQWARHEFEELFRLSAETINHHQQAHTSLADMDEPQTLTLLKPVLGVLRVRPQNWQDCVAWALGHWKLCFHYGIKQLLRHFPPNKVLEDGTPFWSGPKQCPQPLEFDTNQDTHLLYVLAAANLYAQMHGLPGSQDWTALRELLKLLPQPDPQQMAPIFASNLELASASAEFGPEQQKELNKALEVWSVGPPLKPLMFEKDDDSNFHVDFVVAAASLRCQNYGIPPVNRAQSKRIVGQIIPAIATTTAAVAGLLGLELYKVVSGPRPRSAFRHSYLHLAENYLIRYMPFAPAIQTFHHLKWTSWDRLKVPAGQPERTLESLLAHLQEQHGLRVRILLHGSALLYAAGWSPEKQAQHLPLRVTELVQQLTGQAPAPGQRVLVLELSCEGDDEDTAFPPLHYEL
Assay: cryo-EM structure; double-loaded Uba7-UBE2L6-ISG15(t)/ISG15(a) mimetic: ISG15 C76S isopeptide-linked to UBE2L6 L121K, UBE2L6 Cys86 (Aldrithiol-4 activated) crosslinked to Uba7 Cys599, then 1.2 molar excess of ISG15, ATP and Mg2+ for 30 min at 4 °C; frozen at 3.0 mg/ml
Conditions: both partners purified

B1: UBE2L6 (C98S/C102S/L121K) (enzyme, human)
chain: MASMRVVKELEDLQKKPPPYLRNLSSDDANVLVWHALLLPDQPPYHLKAFNLRISFPPEYPFKPPMIKFTTKIYHPNVDENGQICLPIISSENWKPSTKTSQVLEALNVLVNRPNIREPKRMDLADLLTQNPELFRKNAEEFTLRFGVDRPS
modifications: Lys121 (L121K) isopeptide-linked to Gly157 of ISG15 C76S; Cys86 activated with Aldrithiol-4 and crosslinked to Uba7 Cys599
notes: The 6XHis-tag was cleaved with TEV protease 'when required'; source: E. coli BL21 codon plus, purified (Ni-NTA, Superdex 75, Enrich Q)
binding result: binds
